Results published in patent US20220062373A1 (published 2022).

Molecular target: T1, Recombinant human CD206 (MRC1/CD206) (human, UniProt P22897 19-1383)
T1 chain: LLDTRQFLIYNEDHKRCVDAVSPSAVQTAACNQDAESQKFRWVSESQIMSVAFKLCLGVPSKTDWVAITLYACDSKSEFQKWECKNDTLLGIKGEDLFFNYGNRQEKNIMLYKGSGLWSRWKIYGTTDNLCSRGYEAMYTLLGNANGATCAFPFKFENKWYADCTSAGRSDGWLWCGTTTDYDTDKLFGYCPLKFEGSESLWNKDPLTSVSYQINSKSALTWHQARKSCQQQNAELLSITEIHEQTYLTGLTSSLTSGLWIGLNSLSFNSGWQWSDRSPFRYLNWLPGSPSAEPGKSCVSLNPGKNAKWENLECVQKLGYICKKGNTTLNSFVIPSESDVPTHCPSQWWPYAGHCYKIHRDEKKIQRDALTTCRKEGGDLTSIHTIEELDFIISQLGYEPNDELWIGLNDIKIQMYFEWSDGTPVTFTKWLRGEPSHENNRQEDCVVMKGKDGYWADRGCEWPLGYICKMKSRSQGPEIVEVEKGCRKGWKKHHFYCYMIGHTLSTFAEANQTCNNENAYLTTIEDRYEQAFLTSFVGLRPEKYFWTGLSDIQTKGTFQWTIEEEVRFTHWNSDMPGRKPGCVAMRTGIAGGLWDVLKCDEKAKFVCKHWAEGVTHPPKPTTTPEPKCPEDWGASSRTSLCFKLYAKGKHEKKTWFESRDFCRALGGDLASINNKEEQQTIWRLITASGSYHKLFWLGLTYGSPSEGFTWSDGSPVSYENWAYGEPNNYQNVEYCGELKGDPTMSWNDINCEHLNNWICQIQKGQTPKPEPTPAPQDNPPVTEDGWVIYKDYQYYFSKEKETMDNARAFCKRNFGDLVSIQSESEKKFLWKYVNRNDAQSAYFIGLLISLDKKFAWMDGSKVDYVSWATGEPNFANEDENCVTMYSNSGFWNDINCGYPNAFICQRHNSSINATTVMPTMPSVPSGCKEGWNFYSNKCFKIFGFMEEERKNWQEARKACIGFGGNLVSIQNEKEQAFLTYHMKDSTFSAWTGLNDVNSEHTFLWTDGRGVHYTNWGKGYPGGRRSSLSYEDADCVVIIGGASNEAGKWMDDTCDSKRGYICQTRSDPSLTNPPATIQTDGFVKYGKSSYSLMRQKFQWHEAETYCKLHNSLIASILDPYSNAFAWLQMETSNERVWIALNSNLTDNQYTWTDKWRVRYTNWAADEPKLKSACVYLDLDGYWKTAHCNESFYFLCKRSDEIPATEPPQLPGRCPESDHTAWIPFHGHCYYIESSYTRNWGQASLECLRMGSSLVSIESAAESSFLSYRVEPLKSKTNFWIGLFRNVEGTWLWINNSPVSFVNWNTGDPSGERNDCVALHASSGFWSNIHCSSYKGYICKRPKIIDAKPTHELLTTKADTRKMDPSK
Assay: MST

Binder: KFRKAFKRFF [RP-182]
- Kd: 8.37 µM
